Results as given in patent US20230391887A1.

How the values were obtained:
[1] = molecular target: meditope-enabled Trastuzumab v2.0 (83E meditope enabled antibody trastuzumab); assay: SPR, antibody immobilized at 1500 RU, 37 C
[2] = molecular target: meditope-enabled Trastuzumab v2.0 (83E meditope enabled antibody trastuzumab); assay: SPR, antibody immobilized at 1500 RU, 37 C, 1:1 fit
[3] = molecular target: meditope-enabled Trastuzumab v2.0 (83E meditope enabled antibody trastuzumab); assay: SPR, antibody immobilized at 750 RU, 37 C, 1:1 fit
[4] = molecular target: meditope-enabled Trastuzumab v2.0 (83E meditope enabled antibody trastuzumab); assay: SPR, antibody immobilized at 150 RU, 37 C, 1:1 fit

B1: trivalent meditope (TVM) (protein)
chain: GGSAAPSSAPSPSAPCQFDLSTRRLSCGGASPAASPSAPSSPAPKAPSAAPSSAPSPSAPGGCQFDLSTRRLSCGGASPAASPSAPSSPAPKAPSAAPSSAPSPSAPGGCQFDLSTRRLSCGGSPSAPSSPSSPKLPETG
fold improvement of half-life against the monovalent meditope [1]: > 30 fold
half-life [1]: 2.42 h
Kd [2]: 8.2 nM
koff [2]: 8e-05 s⁻¹
kon [2]: 9800 M⁻¹ s⁻¹
t1/2 [2]: 2.4 h
Kd [3]: 14 nM
koff [3]: 0.00014 s⁻¹
kon [3]: 10000 M⁻¹ s⁻¹
t1/2 [3]: 1.3 h
Kd [4]: 51.2 nM
koff [4]: 0.00045 s⁻¹
kon [4]: 8700 M⁻¹ s⁻¹
t1/2 [4]: 0.4 h
